To fix the notation:
B2: OmpC (wild type, in the purified OmpC-MlaA-His complex) (natural protein, E. coli)
chain: AEVYNKDGNKLDLYGKVDGLHYFSDNKDVDGDQTYMRLGFKGETQVTDQLTGYGQWEYQIQGNSAENENNSWTRVAFAGLKFQDVGSFDYGRNYGVVYDVTSWTDVLPEFGGDTYGSDNFMQQRGNGFATYRNTDFFGLVDGLNFAVQYQGKNGNPSGEGFTSGVTNNGRDALRQNGDGVGGSITYDYEGFGIGGAISSSKRTDAQNTAAYIGNGDRAETYTGGLKYDANNIYLAAQYTQTYNATRVGSLGWANKAQNFEAVAQYQFDFGLRPSLAYLQSKGKNLGRGYDDEDILKYVDVGATYYFNKNMSTYVDYKINLLDDNQFTRDAGINTDNIVALGLVYQF

The target of series [1] is B2. Description: SEC. On the technique in general: Size exclusion chromatography separates by hydrodynamic size, large species first.
For series [2], the target named is MlaA-His (from dmlaA-His plasmids, in purified OmpC-MlaA-His complexes) (E. coli) (UniProt P76506). Description: SEC-MALS.
Sequence of MlaA-His (from dmlaA-His plasmids, in purified OmpC-MlaA-His complexes) (E. coli) (P76506 18-251, one chain of several): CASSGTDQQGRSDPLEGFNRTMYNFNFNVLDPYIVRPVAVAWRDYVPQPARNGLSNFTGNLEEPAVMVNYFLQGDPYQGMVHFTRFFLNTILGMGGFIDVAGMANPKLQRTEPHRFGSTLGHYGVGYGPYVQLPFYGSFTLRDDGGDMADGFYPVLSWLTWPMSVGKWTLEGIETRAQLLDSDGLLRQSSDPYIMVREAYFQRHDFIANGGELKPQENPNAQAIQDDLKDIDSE
Series [3] concerns the molecule itself. The series is described as follows: SEC-MALS.
Series [4] deals with the molecule itself. The series is described as follows: temperature titration with SDS-PAGE.

As usually defined, the stoichiometry N is a count of units in the complex or per binding partner.

B1: MlaA_(D61-K124) peptide (domain or fragment, E. coli, UniProt P76506 61-124, looked up)
chain: DYVPQPARNGLSNFTGNLEEPAVMVNYFLQGDPYQGMVHFTRFFLNTILGMGGFIDVAGMANPK
For the molecule B1, the binding result in series [1] was “binds”.

Molecule B2 showed a stoichiometry N (MlaA per OmpC trimer) in series [2] of 1. Moreover, in series [3], the “stoichiometry N” value was 3.

B3: OmpC_(R92L) (natural protein, E. coli, UniProt P06996 22-367, looked up)
chain: AEVYNKDGNKLDLYGKVDGLHYFSDNKDVDGDQTYMRLGFKGETQVTDQLTGYGQWEYQIQGNSAENENNSWTRVAFAGLKFQDVGSFDYGLNYGVVYDVTSWTDVLPEFGGDTYGSDNFMQQRGNGFATYRNTDFFGLVDGLNFAVQYQGKNGNPSGEGFTSGVTNNGRDALRQNGDGVGGSITYDYEGFGIGGAISSSKRTDAQNTAAYIGNGDRAETYTGGLKYDANNIYLAAQYTQTYNATRVGSLGWANKAQNFEAVAQYQFDFGLRPSLAYLQSKGKNLGRGYDDEDILKYVDVGATYYFNKNMSTYVDYKINLLDDNQFTRDAGINTDNIVALGLVYQF
With B3, the binding result in series [4] was “binds”.

B4: OmpC_(G19W) (natural protein, E. coli, UniProt P06996 22-367, looked up)
chain: AEVYNKDGNKLDLYGKVDWLHYFSDNKDVDGDQTYMRLGFKGETQVTDQLTGYGQWEYQIQGNSAENENNSWTRVAFAGLKFQDVGSFDYGRNYGVVYDVTSWTDVLPEFGGDTYGSDNFMQQRGNGFATYRNTDFFGLVDGLNFAVQYQGKNGNPSGEGFTSGVTNNGRDALRQNGDGVGGSITYDYEGFGIGGAISSSKRTDAQNTAAYIGNGDRAETYTGGLKYDANNIYLAAQYTQTYNATRVGSLGWANKAQNFEAVAQYQFDFGLRPSLAYLQSKGKNLGRGYDDEDILKYVDVGATYYFNKNMSTYVDYKINLLDDNQFTRDAGINTDNIVALGLVYQF
Take B4: the binding result in series [4] is on record as “binds”.

B5: OmpCG19W/R92L (natural protein, E. coli, UniProt P06996 22-367, looked up)
chain: AEVYNKDGNKLDLYGKVDWLHYFSDNKDVDGDQTYMRLGFKGETQVTDQLTGYGQWEYQIQGNSAENENNSWTRVAFAGLKFQDVGSFDYGLNYGVVYDVTSWTDVLPEFGGDTYGSDNFMQQRGNGFATYRNTDFFGLVDGLNFAVQYQGKNGNPSGEGFTSGVTNNGRDALRQNGDGVGGSITYDYEGFGIGGAISSSKRTDAQNTAAYIGNGDRAETYTGGLKYDANNIYLAAQYTQTYNATRVGSLGWANKAQNFEAVAQYQFDFGLRPSLAYLQSKGKNLGRGYDDEDILKYVDVGATYYFNKNMSTYVDYKINLLDDNQFTRDAGINTDNIVALGLVYQF
With B5, in series [4], the binding result is recorded as “binds”.

B6: OmpC_(R92A) (natural protein, E. coli, UniProt P06996 22-367, looked up)
chain: AEVYNKDGNKLDLYGKVDGLHYFSDNKDVDGDQTYMRLGFKGETQVTDQLTGYGQWEYQIQGNSAENENNSWTRVAFAGLKFQDVGSFDYGANYGVVYDVTSWTDVLPEFGGDTYGSDNFMQQRGNGFATYRNTDFFGLVDGLNFAVQYQGKNGNPSGEGFTSGVTNNGRDALRQNGDGVGGSITYDYEGFGIGGAISSSKRTDAQNTAAYIGNGDRAETYTGGLKYDANNIYLAAQYTQTYNATRVGSLGWANKAQNFEAVAQYQFDFGLRPSLAYLQSKGKNLGRGYDDEDILKYVDVGATYYFNKNMSTYVDYKINLLDDNQFTRDAGINTDNIVALGLVYQF
Turning to B6, the binding result in series [4] is recorded as “binds”.

These data come from paper doi:10.1101/192500 (bioRxiv, 2018).
